Assay results: patent US20210260159A1

Target: human CD40 on cells (HEK293 transfected with human CD40; Ramos-Blue B-lymphocytes; human B cells; human monocyte-derived dendritic cells) (human) (UniProt P25942)
Assay: cell-based or functional assay

UniProt P25942, sequence (P25942 21-277 limits assumed): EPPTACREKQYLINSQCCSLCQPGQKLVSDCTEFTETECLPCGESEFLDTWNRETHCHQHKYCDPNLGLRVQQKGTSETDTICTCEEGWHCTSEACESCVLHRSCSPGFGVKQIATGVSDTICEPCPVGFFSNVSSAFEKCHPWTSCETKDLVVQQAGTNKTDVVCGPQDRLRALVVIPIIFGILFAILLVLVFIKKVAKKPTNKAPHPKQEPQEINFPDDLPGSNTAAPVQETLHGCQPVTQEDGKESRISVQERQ

EC50 (nM), NFkB-luciferase reporter, HuCD40 293 HEK NFkB c3 cells: 2.27 nM | EC50 (nM), NFkB/AP-1 reporter, Ramos-Blue B-cells: 208 nM
Substance: human IgG4P isotype control NIP-228 (antibody)
